Data on 31 substances can be found in patent US11306156.

Test [1] addresses tissue factor (TF) antigen (UniProt P13726). The experiment in a line: SPR, Fab captured on anti-penta His, TF injected.
Test [2] has the same target. The experiment in a line: SPR (ProteOn), Fab captured on anti-penta-His, TF analyte, 1:1 fit.
For test [3] the target is unchanged. The experiment in a line: SPR KD against wild-type D3H44 Fab (reference KD 0.157 nM).

Chain of tissue factor (TF) antigen (P13726 33-251 limits assumed): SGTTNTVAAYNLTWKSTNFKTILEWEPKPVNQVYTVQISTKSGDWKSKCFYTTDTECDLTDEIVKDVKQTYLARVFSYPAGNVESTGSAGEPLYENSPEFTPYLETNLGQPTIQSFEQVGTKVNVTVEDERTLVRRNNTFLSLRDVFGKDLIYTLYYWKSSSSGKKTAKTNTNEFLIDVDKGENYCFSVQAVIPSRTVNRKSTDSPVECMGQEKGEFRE

With “D3H44 Fab heterodimer H L124R_D146N_Q179K / L Q124E_V133G_S176D_T178E_T180E (H1L1 Fab of LCCA Set # 9350, 9351)”, in test [1], the Change in KD with respect to wild type (-(log(KD design) - log(KD wt))) is -0.1 and the Kd (as a rule, the free concentration of one partner at which half of the binding sites on the other are occupied at equilibrium, for simple one-to-one binding) stood at 0.2 nM.

Consider “D3H44 Fab heterodimer H L124R_D146N_Q179K / L V133G_S176D_T178E_T180E (H1L1 Fab of LCCA Set # 9359)”, for which, in test [1], the Change in KD with respect to wild type (-(log(KD design) - log(KD wt))) was -0.01 and the Kd is 0.16 nM.

Regarding “D3H44 Fab heterodimer H L124R_Q179K / L Q124E_V133G_S176D_T178E_T180E (H1L1 Fab of LCCA Set # 9384, 9388)”, in test [1], the Change in KD with respect to wild type (-(log(KD design) - log(KD wt))) was -0.15 and the Kd amounted to 0.22 nM.

Take “D3H44 Fab heterodimer H L124R_Q179K / L V133G_S176D_T178E_T180E (H1L1 Fab of LCCA Set # 9426)”: in test [1], the Change in KD with respect to wild type (-(log(KD design) - log(KD wt))) was -0.16 and the Kd came to 0.23 nM.

In test [1], “D3H44 Fab heterodimer H L124R_S186K / L Q124E_V133G_S176D_T178D_T180E (H1L1 Fab of LCCA Set # 9461)” returned a Change in KD with respect to wild type (-(log(KD design) - log(KD wt))) of -0.23 and a dissociation constant (Kd) of 0.26 nM.

On to “D3H44 Fab heterodimer H L124R_S186K / L V133G_S176D_T178D_T180E (H1L1 Fab of LCCA Set # 9473)”, for which, in test [1], the Change in KD with respect to wild type (-(log(KD design) - log(KD wt))) was -0.07 and the Kd worked out at 0.18 nM.

In test [1], “D3H44 Fab heterodimer H L124R_S186K / L V133G_S176D_T178E_T180E (H1L1 Fab of LCCA Set # 9489)” registered a Change in KD with respect to wild type (-(log(KD design) - log(KD wt))) of -0.17 and a Kd of 0.23 nM.

For the substance “D3H44 Fab heterodimer, H: A139C_L143E_K145T_Q179E, L: F116C_Q124R_T178R (H1L1 Fab of LCCA set 9049)”, the Kd in test [2] was 0.16 nM. The Change in KD with respect to wild type (-(log(KD design) - log(KD wt))) in test [3] was -0.01.

Turning to “D3H44 Fab heterodimer, H: L124A_L143F_Q179K, L: Q124E_V133W_S176T_T178E_T180E (H1L1 Fab of LCCA set 9092)”, in test [2], the Kd was 0.16 nM. In test [3], the Change in KD with respect to wild type (-(log(KD design) - log(KD wt))) was -0.02.

With “D3H44 Fab heterodimer, H: L124A_L143F_Q179K, L: Q124E_V133W_S176T_T178L_T180E (H1L1 Fab of LCCA set 9096)”, the Kd in test [2] came to 0.17 nM. Further, the Change in KD with respect to wild type (-(log(KD design) - log(KD wt))) in test [3] was -0.04.

On to “D3H44 Fab heterodimer, H: L124A_Q179K, L: Q124E_V133W_S176T_T178E_T180E (H1L1 Fab of LCCA set 9098)”, for which the Kd in test [2] is 0.17 nM. The same substance registered a Change in KD with respect to wild type (-(log(KD design) - log(KD wt))) in test [3] of -0.03.

Take “D3H44 Fab heterodimer, H: L124A_Q179K, L: Q124E_V133W_S176T_T178L_T180E (H1L1 Fab of LCCA set 9099)”: in test [2], the Kd is 0.19 nM. Besides, the Change in KD with respect to wild type (-(log(KD design) - log(KD wt))) in test [3] was -0.09.

In test [2], “D3H44 Fab heterodimer, H: L124W_L143F_K145T_Q179E, L: S131K_V133A_S176T_T178L (H1L1 Fab of LCCA sets 9571 and 9572)” came in with a Kd of 0.26 nM. In test [3], this substance displayed a Change in KD with respect to wild type (-(log(KD design) - log(KD wt))) of -0.21.

Regarding “D3H44 Fab heterodimer, H: L143E_K145T_Q179D, L: Q124R_T178R (H1L1 Fab of LCCA set 9632)”, in test [2], the Kd turned out to be 0.14 nM. The substance also displayed a Change in KD with respect to wild type (-(log(KD design) - log(KD wt))) in test [3] of 0.04.

In test [2], “D3H44 Fab heterodimer, H: L143E_K145T_Q179E, L: Q124K_T178R (H1L1 Fab of LCCA set 9648)” showed a Kd of 0.14 nM. The substance further came in with a Change in KD with respect to wild type (-(log(KD design) - log(KD wt))) in test [3] of 0.05.

“D3H44 Fab heterodimer, H: L143E_K145T_Q179E, L: Q124R_Q160K_T178R (H1L1 Fab of LCCA set 9654)” had a Kd in test [2] of 0.15 nM. In addition, the Change in KD with respect to wild type (-(log(KD design) - log(KD wt))) in test [3] came out at 0.02.

Take “D3H44 Fab heterodimer, H: L143E_K145T_Q179E, L: Q124R_T178K (H1L1 Fab of LCCA set 9660)”: the Kd in test [2] was 0.19 nM. Moreover, the Change in KD with respect to wild type (-(log(KD design) - log(KD wt))) in test [3] is -0.08.

In the case of “D3H44 Fab heterodimer, H: L143K, L: Q124E_V133D (H1L1 Fab of LCCA set 9731)”, the Kd in test [2] was found to be 0.28 nM. Besides, in test [3], the Change in KD with respect to wild type (-(log(KD design) - log(KD wt))) is -0.26.

For the substance “D3H44 Fab heterodimer, H: L143R, L: Q124E_V133E (H1L1 Fab of LCCA set 9740)”, the Kd in test [2] was 0.2 nM. For the same substance, the Change in KD with respect to wild type (-(log(KD design) - log(KD wt))) in test [3] is -0.09.

For “D3H44 Fab heterodimer, H: Q179K, L: Q124E_Q160E_T178E (H1L1 Fab of LCCA set 9758)”, the Kd in test [2] is 0.29 nM. In test [3], this substance displayed a Change in KD with respect to wild type (-(log(KD design) - log(KD wt))) of -0.27.

On to “D3H44 Fab heterodimer, H: Q179K, L: Q124E_Q160E_T180E (H1L1 Fab of LCCA set 9759)”, for which, in test [2], the Kd was 0.32 nM. The substance further displayed a Change in KD with respect to wild type (-(log(KD design) - log(KD wt))) in test [3] of -0.31.

In turn, “D3H44 Fab heterodimer, H: Q179K, L: Q124E_T178E (H1L1 Fab of LCCA set 9784)” yielded a Kd in test [2] of 0.14 nM. Besides, the Change in KD with respect to wild type (-(log(KD design) - log(KD wt))) in test [3] turned out to be 0.05.

For the substance “D3H44 Fab heterodimer, H: Q179K, L: Q124E_T178E_T180E (H1L1 Fab of LCCA set 9786)”, in test [2], the Kd amounted to 0.13 nM. Further, in test [3], the Change in KD with respect to wild type (-(log(KD design) - log(KD wt))) worked out at 0.1.

For “D3H44 Fab heterodimer, H: Q179K, L: Q124E_T180E (H1L1 Fab of LCCA sets 9787, 9792 and 9794)”, the Kd in test [2] turned out to be 0.11 nM. In test [3], the Change in KD with respect to wild type (-(log(KD design) - log(KD wt))) worked out at 0.16.

Take “D3H44 Fab heterodimer, H: Q179R, L: Q124E_Q160E_T178E (H1L1 Fab of LCCA set 9802)”: the Kd in test [2] came out at 0.11 nM. This substance came in with a Change in KD with respect to wild type (-(log(KD design) - log(KD wt))) in test [3] of 0.16.

On to “D3H44 Fab heterodimer, H: Q179R, L: Q124E_T178E (H1L1 Fab of LCCA set 9810)”, for which the Kd in test [2] is 0.14 nM. In test [3], this substance yielded a Change in KD with respect to wild type (-(log(KD design) - log(KD wt))) of 0.04.

In the case of “D3H44 Fab heterodimer, H: Q179R, L: Q124E_T178E_T180E (H1L1 Fab of LCCA set 9812)”, in test [2], the equilibrium dissociation constant (Kd) was determined as 0.16 nM. The Change in KD with respect to wild type (-(log(KD design) - log(KD wt))) in test [3] was -0.01.

In the case of “D3H44 Fab heterodimer, H: S186K, L: Q124E_Q160E_T178E (H1L1 Fab of LCCA set 9830)”, in test [2], the Kd stood at 0.06 nM. In test [3], the Change in KD with respect to wild type (-(log(KD design) - log(KD wt))) came to 0.41.

For “D3H44 Fab heterodimer, H: S186K, L: Q124E_Q160E_T180E (H1L1 Fab of LCCA set 9838)”, in test [2], the dissociation constant (Kd) worked out at 0.13 nM. The Change in KD with respect to wild type (-(log(KD design) - log(KD wt))) in test [3] turned out to be 0.09.

In test [2], “D3H44 Fab heterodimer, H: S186K, L: Q124E_T178E (H1L1 Fab of LCCA set 9850)” returned a Kd of 0.15 nM. In test [3], this substance yielded a Change in KD with respect to wild type (-(log(KD design) - log(KD wt))) of 0.01.

As for “D3H44 Fab heterodimer, H: S186K, L: Q124E_T178E_T180E (H1L1 Fab of LCCA set 9852)”, the Kd in test [2] turned out to be 0.15 nM. The Change in KD with respect to wild type (-(log(KD design) - log(KD wt))) in test [3] was 0.02.
